# Reference: patent publication US20220251193A1 (RAMOT AT TEL AVIV UNIVERSITY, published 2022)
# T1: Sema3A(65) (human (by the filing's definition of …, UniProt Q14563 21-555, limits assumed))
# T1 construct: also called recombinant pure Sema3a protein; 65 kDa furin cleavage
# T1 sequence: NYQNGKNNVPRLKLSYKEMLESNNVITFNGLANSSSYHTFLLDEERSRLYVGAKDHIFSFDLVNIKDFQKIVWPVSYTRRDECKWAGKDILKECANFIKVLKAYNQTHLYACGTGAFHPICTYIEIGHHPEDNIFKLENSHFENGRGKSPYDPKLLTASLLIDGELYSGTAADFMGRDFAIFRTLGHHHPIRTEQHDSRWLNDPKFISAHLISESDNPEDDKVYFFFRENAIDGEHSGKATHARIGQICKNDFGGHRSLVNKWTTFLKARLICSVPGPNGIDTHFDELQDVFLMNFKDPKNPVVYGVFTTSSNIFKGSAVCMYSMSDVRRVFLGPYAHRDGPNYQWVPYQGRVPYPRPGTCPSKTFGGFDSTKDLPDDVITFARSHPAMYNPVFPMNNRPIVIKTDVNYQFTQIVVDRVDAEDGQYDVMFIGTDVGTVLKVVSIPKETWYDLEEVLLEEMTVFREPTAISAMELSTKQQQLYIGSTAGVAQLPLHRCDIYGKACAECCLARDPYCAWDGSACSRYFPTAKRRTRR
# Biological target: T1, Sema3A(65)
# Assay: ELISA on coated antigen (5 µg/ml), Fab in 2 fold dilutions from 1 µM, detection with HRP goat anti human H+L
# Method: FIGS. 1A-B are graphs illustrating purification and ELISA binding evaluation of anti Sema3a isolated Fabs for estimated Kd values. The analyzed antibody was added in 2 fold dilution series starting at 1 μM to the antigen (Sema3A) coated wells (5 μg/ml). Bound antibodies were detected with horseradish peroxidase (HRP)-conjugated goat anti human H+L secondary antibodies. Fab 3H4 (FIG. 1A), L4B8 and L4E6 (FIG. 1B) are presented.
row,EC50 (read off the curve) [nM],Binder
1,~200,"Fab L4E6 (Fab, V domains shown, C-terminal His tag on the Fd fragment) VH: EVQLLESGGGLVQPGGSLRLSCAASGFTFSNFVMNWVRQAPGKGLEWVSRINTDGTSTNYADSVTGRFTISRDNSKNTLYLQMNSLRAEDTAVYYCARDYPLRRLMYYYYGMDVWGQGTLVTVSS VL: DIVLTQSPGTLSLSPGERATLSCRASQTISSNLAWYQQKPGQAPRLLIYGASSRATGIPDRFSGSGSGTDFTLTISRLEPEDFAVYYCQQYSWSPRVYSFGQGTKLEIK"
2,~100,"Fab L4B8 (Fab, V domains shown, C-terminal His tag on the Fd fragment) VH: EVQLLESGGGLVQPGGSLRLPCAASGFTVGLYNINWVRQAPGKGLAWVSTISGSGLNTYYSDPVKGRFTISRDNSKNTLYLQMNSLRAEDTAVYYCARDEDTYAFNWGQGTLVTVSS VL: DIVLTQSPGTLSLSPGERATLSCRASQSVSSSYLAWYQQKPGQAPRLLIYGASTRAPGIPDRFSGSGSGTDFTLTISRLEPEDFAVYYCHQRGSGDTFGPGTKVEIK"
